From publication PMC10786891, “Massively parallel profiling of RNA-targeting CRISPR-Cas13d” come the findings set out here.

Positions count from the first letter of the chain named. Names may count otherwise.

The labels stand for the following.
T1: EsCas13d, nuclease-dead (Eubacterium siraeum, UniProt B0MS50, R295A;H300A;R849A;H854A)
T1 sequence: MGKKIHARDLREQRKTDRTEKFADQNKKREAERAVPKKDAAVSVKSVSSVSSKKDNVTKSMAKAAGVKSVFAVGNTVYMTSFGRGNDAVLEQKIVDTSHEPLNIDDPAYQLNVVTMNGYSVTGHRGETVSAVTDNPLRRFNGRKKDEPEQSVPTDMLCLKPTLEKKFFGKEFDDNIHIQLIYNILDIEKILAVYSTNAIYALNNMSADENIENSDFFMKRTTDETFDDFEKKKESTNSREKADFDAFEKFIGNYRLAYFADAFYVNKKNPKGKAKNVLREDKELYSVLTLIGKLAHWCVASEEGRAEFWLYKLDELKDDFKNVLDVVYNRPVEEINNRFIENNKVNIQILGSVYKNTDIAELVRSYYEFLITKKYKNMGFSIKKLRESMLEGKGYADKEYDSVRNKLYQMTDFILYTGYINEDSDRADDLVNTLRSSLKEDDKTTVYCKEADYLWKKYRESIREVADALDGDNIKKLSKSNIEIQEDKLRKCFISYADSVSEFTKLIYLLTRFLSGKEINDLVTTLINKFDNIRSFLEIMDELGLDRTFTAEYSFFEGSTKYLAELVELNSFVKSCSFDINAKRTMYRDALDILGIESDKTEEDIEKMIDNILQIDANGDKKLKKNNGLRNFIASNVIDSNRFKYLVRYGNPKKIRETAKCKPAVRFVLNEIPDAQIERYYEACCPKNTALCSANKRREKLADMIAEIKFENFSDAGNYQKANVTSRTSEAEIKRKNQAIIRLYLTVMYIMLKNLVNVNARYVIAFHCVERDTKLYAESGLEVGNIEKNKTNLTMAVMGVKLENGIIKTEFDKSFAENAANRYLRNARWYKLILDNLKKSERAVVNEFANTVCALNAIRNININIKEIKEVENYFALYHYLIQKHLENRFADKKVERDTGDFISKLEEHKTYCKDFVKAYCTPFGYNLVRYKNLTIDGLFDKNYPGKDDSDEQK

B1: target 2 MT 5'PFS CUA 3'PFS CAC (mixed)
RNA 1: CACCCGUGCAAAAUUGCAGGGGUCUAAAACCUUCUCCAAAUUGUUUCAUCCU
RNA 2: GGGAAUGGAUCCACAUCUACGAAUUCCUAAGGAUGAAACAAUUUGGAGAAGCACAGAUCGGAAGAGCACACGU
B2: target 2 MT 5'PFS CGG 3'PFS UGA (mixed)
RNA 1: B1 RNA 1
RNA 2: B1 RNA 2 with U28G, A29G, C52U, A53G, C54A
B3: target 2 MT 5'PFS CGG 3'PFS UGC (mixed)
RNA 1: B1 RNA 1
RNA 2: B1 RNA 2 with U28G, A29G, C52U, A53G
B4: target 2 MT 5'PFS UAU 3'PFS UCG (mixed)
RNA 1: B1 RNA 1
RNA 2: B1 RNA 2 with C27U, U28A, A29U, C52U, A53C, C54G
B5: target 2 MT 5'PFS UAA 3'PFS CGC (mixed)
RNA 1: B1 RNA 1
RNA 2: B1 RNA 2 with C27U, U28A, A53G
B6: target 2 MT 5'PFS ACA 3'PFS UCU (mixed)
RNA 1: B1 RNA 1
RNA 2: B1 RNA 2 with C27A, U28C, C52U, A53C, C54U
B7: target 2 MT 5'PFS GAC 3'PFS CGA (mixed)
RNA 1: B1 RNA 1
RNA 2: B1 RNA 2 with C27G, U28A, A29C, A53G, C54A
B8: target 2 MT 5'PFS CUU 3'PFS CGU (mixed)
RNA 1: B1 RNA 1
RNA 2: B1 RNA 2 with A29U, A53G, C54U
B9: target 2 MT 5'PFS ACC 3'PFS AUC (mixed)
RNA 1: B1 RNA 1
RNA 2: B1 RNA 2 with C27A, U28C, A29C, C52A, A53U
B10: target 2 MT 5'PFS CGC 3'PFS CCG (mixed)
RNA 1: B1 RNA 1
RNA 2: B1 RNA 2 with U28G, A29C, A53C, C54G
B11: target 2 MT 5'PFS UAU 3'PFS UCA (mixed)
RNA 1: B1 RNA 1
RNA 2: B1 RNA 2 with C27U, U28A, A29U, C52U, A53C, C54A
B12: target 2 MT 5'PFS GUG 3'PFS CCG (mixed)
RNA 1: B1 RNA 1
RNA 2: B1 RNA 2 with C27G, A29G, A53C, C54G
B13: target 2 MT 5'PFS UAC 3'PFS AGC (mixed)
RNA 1: B1 RNA 1
RNA 2: B1 RNA 2 with C27U, U28A, A29C, C52A, A53G
B14: target 2 MT 5'PFS UAC 3'PFS UAC (mixed)
RNA 1: B1 RNA 1
RNA 2: B1 RNA 2 with C27U, U28A, A29C, C52U
B15: target 2 MT 5'PFS CUU 3'PFS AGG (mixed)
RNA 1: B1 RNA 1
RNA 2: B1 RNA 2 with A29U, C52A, A53G, C54G
B16: target 2 MT 5'PFS UGC 3'PFS CCG (mixed)
RNA 1: B1 RNA 1
RNA 2: B1 RNA 2 with C27U, U28G, A29C, A53C, C54G
B17: target 2 MT 5'PFS AGU 3'PFS CCA (mixed)
RNA 1: B1 RNA 1
RNA 2: B1 RNA 2 with C27A, U28G, A29U, A53C, C54A
B18: target 2 MT 5'PFS ACC 3'PFS AUG (mixed)
RNA 1: B1 RNA 1
RNA 2: B1 RNA 2 with C27A, U28C, A29C, C52A, A53U, C54G
B19: target 2 MT 5'PFS UGC 3'PFS CCA (mixed)
RNA 1: B1 RNA 1
RNA 2: B1 RNA 2 with C27U, U28G, A29C, A53C, C54A
B20: target 2 MT 5'PFS UAC 3'PFS UAG (mixed)
RNA 1: B1 RNA 1
RNA 2: B1 RNA 2 with C27U, U28A, A29C, C52U, C54G
B21: target 2 MT 5'PFS ACA 3'PFS UCC (mixed)
RNA 1: B1 RNA 1
RNA 2: B1 RNA 2 with C27A, U28C, C52U, A53C
B22: target 2 MT 5'PFS AGU 3'PFS CCG (mixed)
RNA 1: B1 RNA 1
RNA 2: B1 RNA 2 with C27A, U28G, A29U, A53C, C54G
B23: target 2 MT 5'PFS UAC 3'PFS AGG (mixed)
RNA 1: B1 RNA 1
RNA 2: B1 RNA 2 with C27U, U28A, A29C, C52A, A53G, C54G
B24: target 2 MT 5'PFS ACC 3'PFS AUA (mixed)
RNA 1: B1 RNA 1
RNA 2: B1 RNA 2 with C27A, U28C, A29C, C52A, A53U, C54A
B25: target 2 MT 5'PFS CUU 3'PFS AGA (mixed)
RNA 1: B1 RNA 1
RNA 2: B1 RNA 2 with A29U, C52A, A53G, C54A
B26: target 2 MT 5'PFS CGC 3'PFS CCA (mixed)
RNA 1: B1 RNA 1
RNA 2: B1 RNA 2 with U28G, A29C, A53C, C54A
B27: target 2 MT 5'PFS CUU 3'PFS AGC (mixed)
RNA 1: B1 RNA 1
RNA 2: B1 RNA 2 with A29U, C52A, A53G
B28: target 2 MT 5'PFS ACC 3'PFS AUU (mixed)
RNA 1: B1 RNA 1
RNA 2: B1 RNA 2 with C27A, U28C, A29C, C52A, A53U, C54U
B29: target 2 MT 5'PFS CGG 3'PFS UGU (mixed)
RNA 1: B1 RNA 1
RNA 2: B1 RNA 2 with U28G, A29G, C52U, A53G, C54U
B30: target 2 MT 5'PFS GUG 3'PFS CCA (mixed)
RNA 1: B1 RNA 1
RNA 2: B1 RNA 2 with C27G, A29G, A53C, C54A
B31: target 2 MT 5'PFS UAC 3'PFS AGA (mixed)
RNA 1: B1 RNA 1
RNA 2: B1 RNA 2 with C27U, U28A, A29C, C52A, A53G, C54A
B32: target 1 insG 3' of 16,insU 3' of 13 (mixed)
RNA 1: CACCCGUGCAAAAAUGCAGGGGUCUAAAACUGAGCGGAUAACCUCUCUAUGG
RNA 2: GGGAAUGGAUCCACAUCUACGAAUUCGUACCAUAGAGGAGUGUUAUCCGCUCACCGAGAUCGGAAGAGCACACGU
B33: target 1 insC 3' of 13,insA 3' of 6 (mixed)
RNA 1: B32 RNA 1
RNA 2: B32 RNA 2 with G38A, A39G, G40C, U41G, G42U, U44A, A45U, U46C, C48A
B34: target 1 C4A,C21A (mixed)
RNA 1: B32 RNA 1
RNA 2: GGGAAUGGAUCCACAUCUACGAAUUCGUACAAUAGAGAGGUUAUCCGAUCACCGAGAUCGGAAGAGCACACGU
B35: target 1 U3G,A18C (mixed)
RNA 1: B32 RNA 1
RNA 2: B34 RNA 2 with A31C, A34C, A48C, U49G

The data set has as its target T1, EsCas13d, nuclease-dead. Put plainly: crRNA (strand 1, pre-loaded); Mg2+; 40 mM Tris-HCl pH 7.5, 150 mM NaCl, 6 mM MgCl2, 1 mM DTT, 0.1% Tween-20, 0.2 mg/ml BSA; 25 C; 10 min per concentration, then washed. To be noted: tags: His6-TwinStrep-SUMO cleaved; N-terminal SNAP kept (SNAP-Surface 488); label: 3' end held by stalled T7 RNA polymerase.
B1: the affinity, expressed as Kd, was 3.01 ± 0.32 nM.
Consider B2, for which the Kd (in general, a measure of binding affinity in units of concentration) stood at 6.9 ± 1.3 nM.
Consider B3, for which binding was characterised by a dissociation constant (Kd) of 4.3 ± 0.5 nM.
As to B4, the Kd turned out to be 27.2 ± 3.2 nM.
Molecule B5 showed a Kd of 4.3 ± 0.5 nM.
With B6, binding was put at a Kd of 8.6 ± 2.3 nM.
In the case of B7 it was 13.6 ± 1.5 nM.
Consider B8, for which binding was put at a Kd of 3.8 ± 0.5 nM. Against the preceding molecule, the Kd is about 3.6-fold lower.
In turn, B9 came in with a Kd of 5.5 ± 0.7 nM.
Consider B10, for which the Kd turned out to be 8.1 ± 1.3 nM.
In turn, B11 came in with a Kd of 24 ± 5 nM.
In the case of B12 it was 13.6 ± 0.9 nM.
The molecule B13 displayed a Kd of 4.2 ± 0.5 nM.
For the molecule B14, the Kd came to 6.2 ± 0.8 nM.
For B15, binding was characterised by a dissociation constant (Kd) of 2.4 ± 0.4 nM.
In the case of B16 it was 61 ± 15 nM; in that of B17, 36 ± 11 nM.
With B18, the affinity, expressed as Kd, was 5.8 ± 1.5 nM.
The molecule B19 displayed a Kd of 16 ± 5 nM.
The molecule B20 registered a Kd of 6.7 ± 0.6 nM.
B21 had a Kd of 10 ± 2.5 nM. This Kd and that of the molecule before are within 1.5-fold of each other.
In turn, B22 returned a Kd of 10.2 ± 0.9 nM.
In the case of B23 it was 4.7 ± 0.7 nM; in that of B24, 6.7 ± 3.2 nM.
Turning to B25, binding was characterised by a dissociation constant (Kd) of 2.9 ± 0.4 nM.
In turn, B26 returned a Kd of 22 ± 4 nM. Compared with the last molecule, the Kd is about 7.6-fold higher.
In the case of B27 it was 2.28 ± 0.22 nM; in that of B28, about 12 nM.
Regarding B29, the Kd stood at 9.3 ± 1.6 nM.
In turn, B30 displayed a Kd of 21.2 ± 1.8 nM.
On to B31, for which the affinity, expressed as Kd, was 6.7 ± 0.9 nM.
Molecule B32 returned a Kd of 23.2 ± 3.2 nM.
B33 yielded a Kd of 11.7 ± 0.9 nM.
B34 returned a Kd of 41 ± 9 nM.
Regarding B35, binding was characterised by a dissociation constant (Kd) of 52 ± 4 nM.
